In patent US20110166062A1 (INDIANA UNIVERSITY RESEARCH AND TECHNOLOGY, published 2011):
Bridges are numbered along the chain shown (N, C = ends). Where no end group is shown, it is not given here.

T1: GIP receptor (UniProt P48546 22-466)
T1 sequence (looked up): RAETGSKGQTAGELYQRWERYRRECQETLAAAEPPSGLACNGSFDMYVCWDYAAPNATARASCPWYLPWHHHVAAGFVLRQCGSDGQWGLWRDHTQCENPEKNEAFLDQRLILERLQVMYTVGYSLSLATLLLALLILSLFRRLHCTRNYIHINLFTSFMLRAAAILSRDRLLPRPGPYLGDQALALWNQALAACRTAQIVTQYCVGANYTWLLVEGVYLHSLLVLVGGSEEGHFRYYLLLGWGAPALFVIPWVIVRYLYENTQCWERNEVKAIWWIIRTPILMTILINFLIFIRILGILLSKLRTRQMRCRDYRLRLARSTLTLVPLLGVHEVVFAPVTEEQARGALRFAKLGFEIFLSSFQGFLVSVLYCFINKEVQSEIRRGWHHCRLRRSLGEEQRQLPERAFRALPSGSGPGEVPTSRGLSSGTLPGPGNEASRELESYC

B1: mt-61 (peptide)
peptide: HSQGTFTSDYSKYLDEIHQKEFIAWLMNT-NH2
modifications: lactam 16-20; N-terminus assumed
SMILES: CC[C@H](C)[C@H](NC(=O)[C@H](Cc1ccccc1)NC(=O)[C@H](CCC(=O)O)NC(=O)[C@@H]1CCCCNC(=O)CC[C@H](NC(=O)[C@H](CC(=O)O)NC(=O)[C@H](CC(C)C)NC(=O)[C@H](Cc2ccc(O)cc2)NC(=O)[C@H](CCCCN)NC(=O)[C@H](CO)NC(=O)[C@H](Cc2ccc(O)cc2)NC(=O)[C@H](CC(=O)O)NC(=O)[C@H](CO)NC(=O)[C@@H](NC(=O)[C@H](Cc2ccccc2)NC(=O)[C@@H](NC(=O)CNC(=O)[C@H](CCC(N)=O)NC(=O)[C@H](CO)NC(=O)[C@@H](N)Cc2c[nH]cn2)[C@@H](C)O)[C@@H](C)O)C(=O)N[C@@H]([C@@H](C)CC)C(=O)N[C@@H](Cc2c[nH]cn2)C(=O)N[C@@H](CCC(N)=O)C(=O)N1)C(=O)N[C@@H](C)C(=O)N[C@@H](Cc1c[nH]c2ccccc12)C(=O)N[C@@H](CC(C)C)C(=O)N[C@@H](CCSC)C(=O)N[C@@H](CC(N)=O)C(=O)N[C@H](C(N)=O)[C@@H](C)O
B2: mt-145 (peptide)
peptide: YAQGTFISDYSKYLDEQAAKEFVNWLLAGGPSSGAPPPS-NH2
modifications: lactam 16-20; N-terminus assumed
SMILES: CC[C@H](C)[C@H](NC(=O)[C@H](Cc1ccccc1)NC(=O)[C@@H](NC(=O)CNC(=O)[C@H](CCC(N)=O)NC(=O)[C@H](C)NC(=O)[C@@H](N)Cc1ccc(O)cc1)[C@@H](C)O)C(=O)N[C@@H](CO)C(=O)N[C@@H](CC(=O)O)C(=O)N[C@@H](Cc1ccc(O)cc1)C(=O)N[C@@H](CO)C(=O)N[C@@H](CCCCN)C(=O)N[C@@H](Cc1ccc(O)cc1)C(=O)N[C@@H](CC(C)C)C(=O)N[C@@H](CC(=O)O)C(=O)N[C@H]1CCC(=O)NCCCC[C@@H](C(=O)N[C@@H](CCC(=O)O)C(=O)N[C@@H](Cc2ccccc2)C(=O)N[C@H](C(=O)N[C@@H](CC(N)=O)C(=O)N[C@@H](Cc2c[nH]c3ccccc23)C(=O)N[C@@H](CC(C)C)C(=O)N[C@@H](CC(C)C)C(=O)N[C@@H](C)C(=O)NCC(=O)NCC(=O)N2CCC[C@H]2C(=O)N[C@@H](CO)C(=O)N[C@@H](CO)C(=O)NCC(=O)N[C@@H](C)C(=O)N2CCC[C@H]2C(=O)N2CCC[C@H]2C(=O)N2CCC[C@H]2C(=O)N[C@@H](CO)C(N)=O)C(C)C)NC(=O)[C@H](C)NC(=O)[C@H](C)NC(=O)[C@H](CCC(N)=O)NC1=O
B3: mt-142 (peptide)
peptide: YAEGTFTSDYSIYMDEQAAKEFVNWLLAGGPSSGAPPPS-NH2
modifications: lactam 16-20; N-terminus assumed
SMILES: CC[C@H](C)[C@H](NC(=O)[C@H](CO)NC(=O)[C@H](Cc1ccc(O)cc1)NC(=O)[C@H](CC(=O)O)NC(=O)[C@H](CO)NC(=O)[C@@H](NC(=O)[C@H](Cc1ccccc1)NC(=O)[C@@H](NC(=O)CNC(=O)[C@H](CCC(=O)O)NC(=O)[C@H](C)NC(=O)[C@@H](N)Cc1ccc(O)cc1)[C@@H](C)O)[C@@H](C)O)C(=O)N[C@@H](Cc1ccc(O)cc1)C(=O)N[C@@H](CCSC)C(=O)N[C@@H](CC(=O)O)C(=O)N[C@H]1CCC(=O)NCCCC[C@@H](C(=O)N[C@@H](CCC(=O)O)C(=O)N[C@@H](Cc2ccccc2)C(=O)N[C@H](C(=O)N[C@@H](CC(N)=O)C(=O)N[C@@H](Cc2c[nH]c3ccccc23)C(=O)N[C@@H](CC(C)C)C(=O)N[C@@H](CC(C)C)C(=O)N[C@@H](C)C(=O)NCC(=O)NCC(=O)N2CCC[C@H]2C(=O)N[C@@H](CO)C(=O)N[C@@H](CO)C(=O)NCC(=O)N[C@@H](C)C(=O)N2CCC[C@H]2C(=O)N2CCC[C@H]2C(=O)N2CCC[C@H]2C(=O)N[C@@H](CO)C(N)=O)C(C)C)NC(=O)[C@H](C)NC(=O)[C@H](C)NC(=O)[C@H](CCC(N)=O)NC1=O
B4: mt-139 (peptide)
peptide: YSQGTFTSDYSKYLDEQAAKEFIAWLLAGGPSSGAPPPS-NH2
modifications: lactam 16-20; N-terminus assumed
SMILES: CC[C@H](C)[C@H](NC(=O)[C@H](Cc1ccccc1)NC(=O)[C@H](CCC(=O)O)NC(=O)[C@@H]1CCCCNC(=O)CC[C@H](NC(=O)[C@H](CC(=O)O)NC(=O)[C@H](CC(C)C)NC(=O)[C@H](Cc2ccc(O)cc2)NC(=O)[C@H](CCCCN)NC(=O)[C@H](CO)NC(=O)[C@H](Cc2ccc(O)cc2)NC(=O)[C@H](CC(=O)O)NC(=O)[C@H](CO)NC(=O)[C@@H](NC(=O)[C@H](Cc2ccccc2)NC(=O)[C@@H](NC(=O)CNC(=O)[C@H](CCC(N)=O)NC(=O)[C@H](CO)NC(=O)[C@@H](N)Cc2ccc(O)cc2)[C@@H](C)O)[C@@H](C)O)C(=O)N[C@@H](CCC(N)=O)C(=O)N[C@@H](C)C(=O)N[C@@H](C)C(=O)N1)C(=O)N[C@@H](C)C(=O)N[C@@H](Cc1c[nH]c2ccccc12)C(=O)N[C@@H](CC(C)C)C(=O)N[C@@H](CC(C)C)C(=O)N[C@@H](C)C(=O)NCC(=O)NCC(=O)N1CCC[C@H]1C(=O)N[C@@H](CO)C(=O)N[C@@H](CO)C(=O)NCC(=O)N[C@@H](C)C(=O)N1CCC[C@H]1C(=O)N1CCC[C@H]1C(=O)N1CCC[C@H]1C(=O)N[C@@H](CO)C(N)=O
B5: mt-69 (peptide)
peptide: HSQGTFTSDYSKYLDKIHQEEFIAWLMNT-NH2
modifications: lactam 16-20; N-terminus assumed
SMILES: CC[C@H](C)[C@H](NC(=O)[C@H](Cc1ccccc1)NC(=O)[C@H](CCC(=O)O)NC(=O)[C@@H]1CCC(=O)NCCCC[C@H](NC(=O)[C@H](CC(=O)O)NC(=O)[C@H](CC(C)C)NC(=O)[C@H](Cc2ccc(O)cc2)NC(=O)[C@H](CCCCN)NC(=O)[C@H](CO)NC(=O)[C@H](Cc2ccc(O)cc2)NC(=O)[C@H](CC(=O)O)NC(=O)[C@H](CO)NC(=O)[C@@H](NC(=O)[C@H](Cc2ccccc2)NC(=O)[C@@H](NC(=O)CNC(=O)[C@H](CCC(N)=O)NC(=O)[C@H](CO)NC(=O)[C@@H](N)Cc2c[nH]cn2)[C@@H](C)O)[C@@H](C)O)C(=O)N[C@@H]([C@@H](C)CC)C(=O)N[C@@H](Cc2c[nH]cn2)C(=O)N[C@@H](CCC(N)=O)C(=O)N1)C(=O)N[C@@H](C)C(=O)N[C@@H](Cc1c[nH]c2ccccc12)C(=O)N[C@@H](CC(C)C)C(=O)N[C@@H](CCSC)C(=O)N[C@@H](CC(N)=O)C(=O)N[C@H](C(N)=O)[C@@H](C)O
B6: mt-127 (peptide)
peptide: YSQGTFTSDYSKYLDEQAAKEFVNWLLAGGPSSGAPPPS-NH2
modifications: lactam 16-20; N-terminus assumed
SMILES: CC(C)C[C@H](NC(=O)[C@H](CC(C)C)NC(=O)[C@H](Cc1c[nH]c2ccccc12)NC(=O)[C@H](CC(N)=O)NC(=O)[C@@H](NC(=O)[C@H](Cc1ccccc1)NC(=O)[C@H](CCC(=O)O)NC(=O)[C@@H]1CCCCNC(=O)CC[C@H](NC(=O)[C@H](CC(=O)O)NC(=O)[C@H](CC(C)C)NC(=O)[C@H](Cc2ccc(O)cc2)NC(=O)[C@H](CCCCN)NC(=O)[C@H](CO)NC(=O)[C@H](Cc2ccc(O)cc2)NC(=O)[C@H](CC(=O)O)NC(=O)[C@H](CO)NC(=O)[C@@H](NC(=O)[C@H](Cc2ccccc2)NC(=O)[C@@H](NC(=O)CNC(=O)[C@H](CCC(N)=O)NC(=O)[C@H](CO)NC(=O)[C@@H](N)Cc2ccc(O)cc2)[C@@H](C)O)[C@@H](C)O)C(=O)N[C@@H](CCC(N)=O)C(=O)N[C@@H](C)C(=O)N[C@@H](C)C(=O)N1)C(C)C)C(=O)N[C@@H](C)C(=O)NCC(=O)NCC(=O)N1CCC[C@H]1C(=O)N[C@@H](CO)C(=O)N[C@@H](CO)C(=O)NCC(=O)N[C@@H](C)C(=O)N1CCC[C@H]1C(=O)N1CCC[C@H]1C(=O)N1CCC[C@H]1C(=O)N[C@@H](CO)C(N)=O
B7: mt-63 (peptide)
peptide: HSQGTFTSDYSKYLDEIHQKEFIAWLMNT-NH2
modifications: lactam 12-16; N-terminus assumed
SMILES: CC[C@H](C)[C@H](NC(=O)[C@H](Cc1ccccc1)NC(=O)[C@H](CCC(=O)O)NC(=O)[C@H](CCCCN)NC(=O)[C@H](CCC(N)=O)NC(=O)[C@H](Cc1c[nH]cn1)NC(=O)[C@@H](NC(=O)[C@@H]1CCC(=O)NCCCC[C@H](NC(=O)[C@H](CO)NC(=O)[C@H](Cc2ccc(O)cc2)NC(=O)[C@H](CC(=O)O)NC(=O)[C@H](CO)NC(=O)[C@@H](NC(=O)[C@H](Cc2ccccc2)NC(=O)[C@@H](NC(=O)CNC(=O)[C@H](CCC(N)=O)NC(=O)[C@H](CO)NC(=O)[C@@H](N)Cc2c[nH]cn2)[C@@H](C)O)[C@@H](C)O)C(=O)N[C@@H](Cc2ccc(O)cc2)C(=O)N[C@@H](CC(C)C)C(=O)N[C@@H](CC(=O)O)C(=O)N1)[C@@H](C)CC)C(=O)N[C@@H](C)C(=O)N[C@@H](Cc1c[nH]c2ccccc12)C(=O)N[C@@H](CC(C)C)C(=O)N[C@@H](CCSC)C(=O)N[C@@H](CC(N)=O)C(=O)N[C@H](C(N)=O)[C@@H](C)O

What follows are binders tested against T1, GIP receptor (assay: cell-based or functional assay).

First: B1
Second: B2
The “EC50” value of the first is 9.2-fold higher: 9.99 nM for the first, 1.09 nM for the second.

First: YAPGTFISDYSIAMDKIHQQDFVNWLLAQKGKKNWLKHNITQ-NH2 [mt-101]
Second: B3
The “EC50” value of the first is 540-fold higher: 71.3 nM for the first, 0.132 nM for the second.

Going from B4 to B5, the “EC50” value rises from 0.569 nM to 14.6 nM (26-fold).

B6 was tested, and the “EC50” value was 0.518 nM.

First: YAPGTFISDYSIAMDKIHQQDFVNWLLAQKGKKNWLKHNITQ-NH2 [mt-101]
Second: B3
The relative activity of the first is lower: 0.06% for the first, 36.4% for the second.

Work on B5 yielded a relative activity of 0.57%.

Each binder was assayed against GLP-1 receptor (UniProt P43220 24-463, limits assumed) (assay: cell-based or functional assay).

First: B1
Second: B2
The “EC50” value of the first is 55-fold lower: 0.18 nM for the first, 9.94 nM for the second.

Going from HSQGTFTSDYSKYLDKIHQEEFIAWLMNT-NH2 [mt-68] to B3, the “EC50” value falls from 0.82 nM to 0.041 nM (20-fold).

Compared with B4, B7 is 2.2-fold higher in “EC50” value: 0.142 nM for the first, 0.31 nM for the second.

Compared with B5, B6 is 7.5-fold lower in “EC50” value: 0.41 nM for the first, 0.055 nM for the second.

For B3, the relative activity was 163%.
